# Measurements as given in the nanobody polyreactivity screen of Harvey et al. (2022).
# Test: yeast display, Sf9 membrane polyspecificity reagent, FACS + sequencing; frameworks hold sequencing errors
# Outline: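 Synthetic nanobody libraries on Saccharomyces cerevisiae BJ5465 were galactose-induced for 36–48 hours, stained 1 hour at 4 °C with 10% biotinylated, detergent-solubilized Sf9 membrane reagent and enriched on streptavidin microbeads. FACS then separated cells into low and high (top ~1%) gates by anti-HA (expression) and streptavidin (reagent binding) fluorescence. Genes were colony-PCR amplified, MiSeq 2 × 250 sequenced and CDR-length filtered. A clone's polyreactivity label is that of its gate of origin.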
row,Sequence,polyreactivity (PSR sort gate)
1,QVQLVDSGGGLVQAGGSLRLSCSASGSILGAYAMGWYRQSPGKERELVASISWSGGSTYYADSVKGRFTISRDNAKNTVYLQMNSLKPEDTAGYYCAASGIRYWLPYDYWGQGTQVTVSS,high polyreactivity
2,QVQLVESGGGLVQAGGSLRLSCAASGSTFYTNVMGWYRQAPGKDRELVAAISYNSGSTSYADSVKGRFTISRDNAKNTVYLQMNSLKPEDTAVYYCAVRIRLRRARLSYDYWGQGTQVTVSS,high polyreactivity
3,QVQLVESGGGLVQAGGSLRLSCAASGSTFAWYDMGWYRQAPGNEREFVAAIDYGGGSTYADSVKGRFTISRDKEKNTVYLQMNSLKPEDTAVYYCNADNWVYLYDYWGQGTQVTVSS,low polyreactivity
4,QVQLQESGGGLVQAGGSLRLSCAASGYISHADEMGWYRQAPGKEHELVASISNGGSTNYADSVKGRFTISRDNAKNTVYLQRNSLKSEDTAVYYCAAWTGQVDIHYYWGQGTQVTVSS,low polyreactivity
5,QVQLVESGGGLVQAGGSLRLSCAASGSIFDYNTMGWYRQAPGKVRELVAVISGTGGSTYYADSVKGRFTISRVNAKNTVYVQLNSMKPEDTAVYYCAAEGYYSNYHYWGQGTQVTVSS,low polyreactivity
6,QVQLVESGGGLVQAGGSLRLSCAASGSIFYINAMGWYRQAPGKEREFVATITWSGDSTYYADSVKGRFTISRDNAKNTVYLQMNSLKPEDTAVYYCTARKQYQSYVDWEYDYWGQGTQVTVSS,low polyreactivity
7,QVQLVESGGGLVQAGGSLRLICAASGFIFTSYTMGWYRQAPGKERELVAAISRSGGRTYYADSVKGRFTISRDNAKNTVYLQMNRLKPVDTAVYYCNAGYPASYYYYGFDYWGQGTQVTVSS,high polyreactivity
8,QVQLVESGGGLVQAGGSLRLSCAASGITFVFYAMGRYRPAPGKERELVAAISSSGGSTYYADSVKGRFTISRDNAKNTVYLQMNSLKAEDTAVYYCNAKVFSYQGAVRYDYWGQGTQVTVSS,high polyreactivity
9,QVQLVESGGGLVQAGGSLRLSCAASGFIFSNYAMGWYRQAPGKERELVAAISWSGGNTYYADSVKGRFTISRDNAKNTVYLQMNSLKPEDTAVYYCTRVKAYYRWFLPRYQYNYWGQGTQVTVSS,high polyreactivity
10,QVQLVESGGALVQAGGSLRISCAASGFTLQRNTMGWYRQAPGKDREFVAAISVRGGSTYYADSVKGRFTNSRDTAKNTVYLQMNSLKPEDTAVYYCAAVGRPSQYSYPYGYWGQGTQVTVSS,high polyreactivity
11,QVQLVESGGGLVQAGGSLRLSCAASGSTFDSNAMGWYRQAPGKERELVAAIDYSSDSTYYADSVKGRFTISRDNAKNTVYLQMNSLKPEDTAVYYCAADIPPWGGDYWGQGTQVTVSS,low polyreactivity
12,QVQLVESGGGLVQAGGSLRLSCAASGRIYSVYAMGWYRQAPGKERELVAAIRSGDRTNYADSVKGRFTISRDNAKNTVYLQMNSLKPEDTAVYYCAAVQRPYYYWGQGTQVTVSS,high polyreactivity
13,QVQLVESGGGLVQAGGSLRLSCAASGRIFYFYPMGWYRQAPGKERELVAAISTSGGSTYYADSVKGRFTISRDNAKNTVYLQMNSLKPEDTAVYYCAARFRYYVSEYDYWGQGTQVTVSS,low polyreactivity
14,QVQLVESAGGLVQEGGSLRLSCAASGLTFYGNAMGWYRQAPGKERELVAAISSSGGTTSYADSVKGRFTISRDNAKNTVYLQFNSLKPEDTAVYYCAARPSGGYESTRTRDYWGQGTQVTVSS,low polyreactivity
15,QVQLVESGGGLVQAGGSLRLSCAASGSNFHQYAMGWYRQAPGKERELVAGINWSGGSTYYADSVKGRFTISRDNAKNTVYLQMNSLKPEDTAVYYCAKRYQLARAAYTGGYWGQGTQVTVSS,high polyreactivity
16,QVQLVESCGGLVQAGGSLRISCAASGRIFRPYAMGWYRQAPGPEREFVAAITSGSNTYYADSVKWRFTISRDNAKNTVYLQMNSLKPEDTAFYYCAAVQRKRAPAETAYGYWGQGPQVTVSS,high polyreactivity
17,QVQLVESGGGLVQAGGSLRLSCAASGRIFQLYAMGWYRQRPGKERELVAAIRYSGDSTYYADSVKGRFTISRDNAKNTVYLQMNSLKPEDTAVYYCAAYWVYLSYYRYDYWGQGTQVTVSS,high polyreactivity
18,QVQLVESGGGLVQAGGSLRLSCAASGSIFSSNTMGWYRQAPGKERELVAAITSGGTTYADSVKGRFTISRDNAKNTVYLQMNSLKPEDTAVYYCAARYYIHRGYDYDYWGQGTQVTVSS,high polyreactivity
19,QVQLVESGGGLFQAGGSLRLSCAASVSIFSWYTMGWYRQAPGKERELDAAITSSGGSTYYADSVKGRFTISRDNAKNTVYLQMNSLKPEDTAVYYCAAKSWFYYLHRPYVRRYDYWGQGTQVTVSS,high polyreactivity
20,QVQLGESGGGLVQAGGSLRLSCAASGSIFSNYAMGWYRQAPWKERELVATIRLSGGSTYYADSVKGRFTISRDNAKNTVYLQMNSLKPEDTAVYDCAARIHWPYWYARLDYWGQVTQVTVSS,high polyreactivity
21,QVHLVESGGGLVQAGGSLRLSCAASGGIFYTYAMGWYRQAPGKEREMVAAISWRGGSTYYADSVKGRFTISRDNAKNTVYLQMNSLNPEDSAVYYCNKVTDYYYQIYWSYPYFTPDYFWGQGTQVTVSS,high polyreactivity
22,QVQLVESGGGLVQAGGSLRLSFAASGRTFYINDMGWYRQAPGKERELVAAITWRGGSTYYADSVKGRFTISRDNAMNTVYLQMNSLKPEDTAVYYCAAYISLYWWYDYWGQGTQVTVSS,low polyreactivity

row,Sequence,polyreactivity (PSR sort gate)
1,QVQLVESGGGLVQAGGSLRISCAASGSTFSGNSMGRYRPAPGKERELFAAINSVRTYYADSVKGRFTISRDNAKNTVYLQMNSLIPEDTAVFSCAARQGYSSRFPAKGYYWGQGTQVTVSS,high polyreactivity
2,QVQLVESGGGLVQAGGSLRLSCAASGSTFYPYAMGWYRQAPGKERELVAAISSGGSTSYADSVKGRFTISRENAKNTVYLQMNSLKPEDTAVYYCNASSPVAVPVYDYDYWGQGTQVTVSS,low polyreactivity
3,QVQLVESGGGFVPAGGSLRLSCAASGSTFIPYAMGWYRQAPGKERELVAAISSGGRTYYADSVKGRFTISRDNAKNTVYLQMNSVKPEDTAGYYCASTTSPSSARYYYWGQGTQVTVSS,high polyreactivity
4,QVQLVESGGGLVQAGGSLRLSCAASGRTLGAYAMGWYRQAPGKERELVAAIRWSGSSTYYADSVKGRFTISRDNAKNTVYLQMNSLKPEDTAVYYCAAYWSRVLYGMNYWGQGTQVTVSS,high polyreactivity
5,QVQLVESGGGLVQAGGSLRLSCAASGSICGLYDMRWYRQAPGKERELVASITGGGSTYADSVKGRFTISRDNAKNTVYLQMNSLKPEDTAVYSFAAKPYSFYGYKYDYWGQGTQVTVSS,low polyreactivity
6,QVQLVESGGGLVQAGGSLRLSCAASGSILALYTMGVYRQAPGKERELVASISSGGRTNYADSVKGRFTISRDNAKNTVYLQMNSLKPEDTAVYYCARSRLGRAYGRYDYWGQGTQVTVSS,low polyreactivity
7,QVQLVESGGGLVQAGGSLRLSCAASGRTFQGNTMGWYRQAPGKERELVAAITWRGTTTYYADSVKGRFTISRDNAKNTVYVQMNSLKPEDTAVYYCAAGHALHSGDEFGYWGQGTQVTVSS,low polyreactivity
8,QVQLVESGGGLGQAGGSLRLSCAASGRIFDYYAMGWYRQAPGKERELVATITSGSRTYYADSVKGRFTISRDNAKNTVYLQMNSLNPEDTAVYSCAAVKRSYYKGEYNAYDYWGQGTQVTVSS,high polyreactivity
9,QVQLVESGGGLVQAGGSLRLSSAASGSILYVYAMGWYRQAPGKERELVAVITSGGSTNYADSVKGRFTISRDNAKNTVYLQMNSLKPEDTAVYYCAADPYSVYGGDYWGQGTQVTVSS,low polyreactivity
10,QVQLVESVGGLVQAGGSLRLSCAASGLIFHRYAMGWYRQAPGKERELVAAISSSGGITYYADSVKGRFTISRDNAKNTVYLQMNSLKPVDTAVYYCPADTGKGSPFSAGLGRAGDYWGHGTQVTVSS,low polyreactivity
11,QVQLVESGGGLVKAGGILRLSCAASGYIFVRYAMGWYRQAPGKERELVAAISYRGGSTYADSVKGRFTISRDNAKNTVYLQMNRLKPEDTAVYYCAAQRWYVYGQKYHYGYWGQVTQVTVSS,high polyreactivity
12,QVQLVESGGGLVQAGGSLRLSCAASGITFRRYAMGWYRQAPGKERELVASITSNGGSTYYADSVKGRFTISRDTAKNTVYLQMNSLKPEDTAVYYFAADFAVGQWLTQTSVEYDYWGQGTQLTVSS,high polyreactivity
13,QVQVVESGGGLVQAGGCLRLSCAASGVIFVGYAMGWYRQAPGKERELVAAISWSGGSTYYADSVKGRFTISRDKAKNTVYLQMNSLKPEDTAVYYCAAYLYGYEYWGQGTQVTVSS,high polyreactivity
14,QVQLVESGGGLVQAGGSLRLSCAASGSIIGYYAMGWYRQAPGKERELVAAITASGGSTYYADSVKGRFTISRDNAKNTVYLQMNSLKPEDTAVYYCAAGTHTDYGRYYYWGQGTQVTVSS,low polyreactivity
15,QVQLVESGGGLVQAGGSLRLSCAASGRTFRYNALGWYRQAPGKETELVAAISGRGSSTYYADSVKGRFTISRDNAKNTVYLQMNSLKPEDTAVYYCAALPASVRRPGWHDYWGQGTEVTVSS,high polyreactivity
16,QVQLVESGGGLVQAGGSLRLSCAASGSTFWFYAMGWYRQAPGKERELVAANSRSSGSTYYADSVKGRFTISRDNAKNTVYLQMNSLKPEDTAVFSCAAVEPDRDYGYWGQGTQVTVSS,low polyreactivity
17,QVQLVESGGGLVQAGGSLRLSCAASGFICGLNAMGLYRQAPGKERELVAAIRSASSTNYADSVKGRFTISRDNAKNTVYLQMNSLKPEDTAVYYCAAEYVTYQQGFWGYDYWGQGTQVTVSS,low polyreactivity
18,QDQLVESGGGLVQAGGSLRLSCAASGRTFYLYAMGWYRQAPGKERELVARISWGGGRTYYADSVKGRFTISRDNAKNTVYLQMNSLKPEDTAVYYCNAQSPRGFTTTRQVYPLNGYWGQGTQVTVSS,high polyreactivity
19,QDQLVESGGGLVQAGGSLRLSCAASGFTFSVNAMGWYRQAPGKERELVAAITRGRSTSYADSVKGRFTISRDNAKNTVYLQKNSLKPEDTAVYYCAASYSGGTWSGYYYWGQGTQVTVSS,high polyreactivity
20,QVQLVESGGGLVQAGGSHRLSCAASGFTIVQYAMGWYRQAPGKERELVARISRNGGSTYYADSVKGRFTISRDNAKNTVYLQMNSLKPEDTAVYYCNALRGPVKYYSWGQGTQVTVSS,low polyreactivity
21,QVQLVESGGGLVQAGGSLRLSCAASGRTFLALGWYRPAPGKERELVAAISRTNYADSVKGRVTISRDNAKNTVYLQMHSLKPEETAVYYCAKEYYSYEGYLGLSYVRRYDYWGQGTQVTVSS,low polyreactivity
